Measured values from article PMC6726633, “Different Grp94 components interact transiently with the myocilin olfactomedin domain in vitro to enhance or retard its amyloid aggregation” (Scientific Reports, 2019).

T1: Myocilin olfactomedin domain, residues 228-504 (human), Q99972
T1 chain: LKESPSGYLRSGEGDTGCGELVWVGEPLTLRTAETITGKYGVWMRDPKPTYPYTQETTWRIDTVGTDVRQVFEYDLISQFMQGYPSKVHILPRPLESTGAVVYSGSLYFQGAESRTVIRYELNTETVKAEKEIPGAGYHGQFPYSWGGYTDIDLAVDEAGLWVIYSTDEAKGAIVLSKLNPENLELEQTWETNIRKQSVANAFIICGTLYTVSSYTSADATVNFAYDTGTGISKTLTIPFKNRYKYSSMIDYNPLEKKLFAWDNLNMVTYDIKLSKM


What was measured:
[1] = target: T1, Myocilin olfactomedin domain, residues …; test: cross-linking; OLF-only control samples of the BS3(d0/d4) cross-linking experiments, PBS; SDS-PAGE and LC-MS; conditions: remark: other sources report otherwise
[2] = target: T2, Grp94 N and middle domains, residues 22-594 (human, UniProt P14625 22-594); test: cross-linking; Grp94N, Grp94NM or Grp94MC:OLF 1:1, OLF 100 μM (dansylated or label-free), PBS, 10 mM BS3(d0/d4) 3 h at 37 °C; SDS-PAGE (Coomassie, dansyl fluorescence), in-gel digestion and LC-MS; conditions: both partners purified
T2 construct: Grp94, Homo sapiens, residues 22-594 (STOP codon installed after position 594 on the Grp94FL template); Tag removed with TEV protease; also called Grp94NM; NM; source: E. coli BL21(DE3), purified (HisTrap, SEC, TEV cleavage, SEC); not shown: His6, N-terminal, cleaved

[3] = target: T3, Grp94 Pre-N truncation variant, residues 58-804 (canine) (Canis lupus familiaris, UniProt P41148 58-804); test: co-sedimentation; after the ThT aggregation assay (Grp94 construct 3 μM, OLF 30 μM, PBS, 42 °C, up to 96 h): centrifugation 10 min at 17,000 x g; supernatant, wash and pellet on 12% reducing SDS-PAGE, Coomassie, densitometry; only samples containing OLF gave pellets; conditions: both partners purified
T3 construct: C-terminal 6xHis tag is non-cleavable; not shown: His6, C-terminal, kept

[4] = target: T4, Grp94 N-terminal nucleotide-binding domain (including Pre-N), residues 22-337 (human, UniProt P14625 22-337); test: as above; conditions: both partners purified
T4 construct: Grp94, Homo sapiens, residues 22-337 (STOP codon installed after position 337 on the Grp94FL template); Tag removed with TEV protease; also called N domain; source: E. coli BL21(DE3), purified (HisTrap, SEC, TEV cleavage, SEC); not shown: His6, N-terminal, cleaved

[5] = target: T5, Grp94 Pre-N truncation variant, residues 73-804 (canine) (Canis lupus familiaris, UniProt P41148 73-804); test: as above; conditions: both partners purified
T5 construct: C-terminal 6xHis tag is non-cleavable; not shown: His6, C-terminal, kept
T5 sequence (P41148 73-804, change not shown): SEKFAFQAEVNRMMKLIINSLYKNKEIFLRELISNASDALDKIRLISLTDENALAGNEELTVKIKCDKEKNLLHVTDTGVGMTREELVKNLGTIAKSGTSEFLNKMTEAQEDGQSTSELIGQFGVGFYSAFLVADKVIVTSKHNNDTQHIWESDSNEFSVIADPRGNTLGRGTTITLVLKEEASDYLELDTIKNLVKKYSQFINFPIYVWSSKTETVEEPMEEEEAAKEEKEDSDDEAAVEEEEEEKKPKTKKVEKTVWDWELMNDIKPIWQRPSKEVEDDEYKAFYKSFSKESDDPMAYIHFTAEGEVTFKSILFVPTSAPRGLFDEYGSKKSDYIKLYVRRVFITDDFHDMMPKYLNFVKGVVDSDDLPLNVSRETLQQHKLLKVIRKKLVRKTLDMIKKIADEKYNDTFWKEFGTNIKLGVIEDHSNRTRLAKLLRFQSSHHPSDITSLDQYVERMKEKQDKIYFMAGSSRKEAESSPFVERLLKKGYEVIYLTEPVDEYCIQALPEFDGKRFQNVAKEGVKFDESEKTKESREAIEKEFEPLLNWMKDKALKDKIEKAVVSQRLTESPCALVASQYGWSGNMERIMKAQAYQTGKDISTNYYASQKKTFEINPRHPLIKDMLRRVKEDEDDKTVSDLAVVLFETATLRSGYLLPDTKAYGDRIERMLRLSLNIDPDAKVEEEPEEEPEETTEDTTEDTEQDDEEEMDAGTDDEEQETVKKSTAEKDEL

T2 sequence (P14625 22-594): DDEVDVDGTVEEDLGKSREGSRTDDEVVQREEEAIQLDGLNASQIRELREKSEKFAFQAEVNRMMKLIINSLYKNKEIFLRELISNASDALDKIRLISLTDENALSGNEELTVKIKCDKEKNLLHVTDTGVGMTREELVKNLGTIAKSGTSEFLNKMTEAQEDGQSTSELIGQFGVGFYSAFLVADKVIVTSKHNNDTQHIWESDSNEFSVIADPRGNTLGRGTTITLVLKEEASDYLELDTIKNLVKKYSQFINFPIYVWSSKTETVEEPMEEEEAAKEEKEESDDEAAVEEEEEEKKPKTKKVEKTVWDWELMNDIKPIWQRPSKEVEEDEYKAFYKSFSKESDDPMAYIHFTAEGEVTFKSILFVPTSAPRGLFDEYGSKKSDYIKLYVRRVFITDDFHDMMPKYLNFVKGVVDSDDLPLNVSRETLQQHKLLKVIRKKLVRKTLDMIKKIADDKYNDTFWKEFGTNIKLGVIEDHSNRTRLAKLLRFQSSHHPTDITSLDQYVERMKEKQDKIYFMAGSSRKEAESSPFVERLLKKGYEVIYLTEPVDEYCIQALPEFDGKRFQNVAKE
T4 sequence (P14625 22-337): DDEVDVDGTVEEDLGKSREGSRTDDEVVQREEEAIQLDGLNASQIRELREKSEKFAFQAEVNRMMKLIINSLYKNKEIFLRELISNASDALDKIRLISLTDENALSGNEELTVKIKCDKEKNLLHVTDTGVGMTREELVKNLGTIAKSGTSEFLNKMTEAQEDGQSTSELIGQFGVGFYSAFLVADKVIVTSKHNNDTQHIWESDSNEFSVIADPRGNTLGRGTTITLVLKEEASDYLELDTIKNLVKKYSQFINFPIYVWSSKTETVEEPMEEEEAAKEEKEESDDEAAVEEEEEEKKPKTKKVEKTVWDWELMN
T3 sequence (P41148 58-804, change not shown): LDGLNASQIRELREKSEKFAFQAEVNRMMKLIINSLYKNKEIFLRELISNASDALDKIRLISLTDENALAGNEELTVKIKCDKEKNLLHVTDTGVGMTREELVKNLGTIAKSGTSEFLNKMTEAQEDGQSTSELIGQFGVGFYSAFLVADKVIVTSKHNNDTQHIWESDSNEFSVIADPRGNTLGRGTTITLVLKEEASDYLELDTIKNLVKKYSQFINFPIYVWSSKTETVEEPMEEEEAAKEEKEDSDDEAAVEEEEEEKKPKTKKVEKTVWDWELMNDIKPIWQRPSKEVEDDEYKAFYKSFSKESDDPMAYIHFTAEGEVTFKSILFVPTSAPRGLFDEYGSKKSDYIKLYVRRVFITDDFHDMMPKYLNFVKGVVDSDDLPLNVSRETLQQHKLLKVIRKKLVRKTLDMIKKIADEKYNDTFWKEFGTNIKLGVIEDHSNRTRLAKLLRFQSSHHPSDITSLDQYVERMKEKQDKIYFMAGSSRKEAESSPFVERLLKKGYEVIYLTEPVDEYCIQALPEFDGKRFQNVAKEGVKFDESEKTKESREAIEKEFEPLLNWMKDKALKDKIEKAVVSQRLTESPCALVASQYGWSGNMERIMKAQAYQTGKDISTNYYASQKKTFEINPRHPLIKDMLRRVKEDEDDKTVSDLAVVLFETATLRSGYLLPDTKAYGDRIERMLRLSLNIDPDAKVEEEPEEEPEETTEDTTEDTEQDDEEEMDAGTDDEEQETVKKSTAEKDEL

stoichiometry N [1] | binding result [2] | binding result [3] | binding result [4] | binding result [5] | Binder
2 |  |  |  |  | Myocilin olfactomedin domain, residues 228-504, Q99972 228-504 (domain or fragment) LKESPSGYLRSGEGDTGCGELVWVGEPLTLRTAETITGKYGVWMRDPKPTYPYTQETTWRIDTVGTDVRQVFEYDLISQFMQGYPSKVHILPRPLESTGAVVYSGSLYFQGAESRTVIRYELNTETVKAEKEIPGAGYHGQFPYSWGGYTDIDLAVDEAGLWVIYSTDEAKGAIVLSKLNPENLELEQTWETNIRKQSVANAFIICGTLYTVSSYTSADATVNFAYDTGTGISKTLTIPFKNRYKYSSMIDYNPLEKKLFAWDNLNMVTYDIKLSKM
 | binds | binds | binds | binds | Myocilin olfactomedin domain, residues 228-504 (domain or fragment, human, UniProt Q99972 228-504, looked up, Myocilin C-terminal olfactomedin (OLF) domain, Homo sapiens, residues 228-504; The results call S233 the N-terminal residue of the OLF construct, though the methods give residues 228-504 and a cross-link at K229 is reported; also called wild-type OLF) LKESPSGYLRSGEGDTGCGELVWVGEPLTLRTAETITGKYGVWMRDPKPTYPYTQETTWRIDTVGTDVRQVFEYDLISQFMQGYPSKVHILPRPLESTGAVVYSGSLYFQGAESRTVIRYELNTETVKAEKEIPGAGYHGQFPYSWGGYTDIDLAVDEAGLWVIYSTDEAKGAIVLSKLNPENLELEQTWETNIRKQSVANAFIICGTLYTVSSYTSADATVNFAYDTGTGISKTLTIPFKNRYKYSSMIDYNPLEKKLFAWDNLNMVTYDIKLSKM
 | binds |  |  |  | Dansylated myocilin olfactomedin domain (domain or fragment, human, UniProt Q99972 228-504, looked up, dansyl (~2 dansyl modifications per OLFd by MS), sites not stated, Myocilin C-terminal olfactomedin (OLF) domain, Homo sapiens, residues 228-504; Same construct as m7, chemically labelled; also called OLFd; dansyl-modified OLF) LKESPSGYLRSGEGDTGCGELVWVGEPLTLRTAETITGKYGVWMRDPKPTYPYTQETTWRIDTVGTDVRQVFEYDLISQFMQGYPSKVHILPRPLESTGAVVYSGSLYFQGAESRTVIRYELNTETVKAEKEIPGAGYHGQFPYSWGGYTDIDLAVDEAGLWVIYSTDEAKGAIVLSKLNPENLELEQTWETNIRKQSVANAFIICGTLYTVSSYTSADATVNFAYDTGTGISKTLTIPFKNRYKYSSMIDYNPLEKKLFAWDNLNMVTYDIKLSKM
